Laboratory results reported in the supplement of paper PMC9170038.

System: MS2 coat protein
Assay: apparent KD of MS2 coat protein; designed switch direction (-1 OFF switch, 1 ON switch): 1; higher = weaker reporter binding
Procedure, shortened: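 Designed RNA switches with common flanks were transcribed on Illumina chips by stalled E. coli RNA polymerase and titrated with SNAP-549-labelled MS2 coat protein, from 0.7 or 1.5 nM doubling to 3 µM, in Tris-HCl pH 7.5 buffer with KCl, MgCl2, BSA, DTT, tRNA and Tween-20. Steps lasted 0.8–1.5 h (lowest) to 10–20 min (highest). Titrations ran without input, with 200 uM small-molecule ligand, or with an oligonucleotide input. Normalised cluster fluorescence was curve-fitted, and apparent KD is the per-design median over clusters.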

[1] = input ligand: microRNA oligo, concentration not stated
[2] = Eterna round: R95, input ligand: microRNA oligo, concentration not stated
[3] = Eterna round: R95, input ligand: FMN 200 uM
[4] = Eterna round: R95, input ligand: none

Sequence	apparent KD of MS2 coat protein (input ligand: FMN 200 uM) [nM]	apparent KD of MS2 coat protein [1] [nM]	apparent KD of MS2 coat protein (input ligand: none) [nM]	apparent KD of MS2 coat protein [2] [nM]	apparent KD of MS2 coat protein [3] [nM]	apparent KD of MS2 coat protein [4] [nM]
GAAAUAAUGAAAGGAUAUACAUGAGGAAUUCUCGUAGAAGGUUCAUGACAUGAGGAUCACCCAUGUAUCGCUCGAAAGAGCGAG [Mat - Same State NG 1 - JL mod - D31] (Eterna round: R96, puzzle: Same State NG 1)	510	152	64	–	–	–
GCGGAACCUAACAUGAGGAUCACCCAUGUUCCGGAAACGGCACAGGAUAUCUGUCCGAAAAGGUCAGAGAAGGGUGAAAACCGC [Fiskers NG3ss - 95] (Eterna round: R96, puzzle: Same State NG 3)	131	307	390	–	–	–
CAGCACUGUCGAGAGGAUAUGCGGUGAUGGACAUGAGGAUCACCCAUGUUAGCGACAGCAUCACGGCAGAAGGCUCUACUGCUGC [Soteed Omei mod 32] (puzzle: Same State 2)	–	–	–	12.3	–	–
GGAGCCGGCACCGAGGAUAUUCAUAUUAAAACAUGAGGAUCACCCAUGUACCGCAGAAGCGGUUGGGAGAAGGCGGAUCGGCUCG [Xeonanis - 23] (Eterna round: R96, puzzle: Same State 2)	31.3	311	534	–	–	–
GUGAAGAAUUAAGGAUAUUGAAUACAUAUGUUUAACAUGAGGAUCACCCAUGUGGGUUGCGGUAUCGAGAAGGUAAAUUACUAG [salish99_SSNG2_r04_031] (Eterna round: R96, puzzle: Same State NG 2)	95.5	89.9	118	–	–	–
UGGUAACAUGAGGAUCACCCAUGUCAAAUGAAUCGAGGAUAUGGGAAGGAAGAAGAGAAACUAGAAGGCGAAGUUG [Altered State 1-5 - Jieux - Same State 1] (puzzle: Same State 1)	–	–	–	101	89	127
AGAUCAUGACGAGGAUAUGGAACAUGAGGAUCACCCAUGUAUGUUCCAUAACGCGAACGACGAAUCCAGAAGGCGUCGUGAUCA [Mat - Same State NG 2 - JL mod - D42] (Eterna round: R96, puzzle: Same State NG 2)	5.24	21.6	26.3	–	–	–
CCGCCGGGAACCCGGCGAAAACAUGAGGAUCACCCAUGUACACAGGAUAUCGUGACAUUAACAAACGAGAAGGGUGGCCGAGAC [Lelateen] (Eterna round: R96, puzzle: Same State NG 3)	453	189	182	–	–	–
GAGAGAGGAUGAGGAUAUGCAGUAAUAAUGAUAGCAGAAGGCAUAGACAUGAGGAUCACCCAUGUGGGAAUAAUCCAGAGAGAG [Parity 1 - Jieux - Same State NG 1] (Eterna round: R96, puzzle: Same State NG 1)	–	132	–	–	–	–
GCCGUAUAAACAUGAGGAUCACCCAUGUGCGCGAGAGCGAAUGAGGAUAUCGAUGGGUUUCCCGUCGAGAAGGCGUGGGUCGGC [JL SSNG3 3.96] (Eterna round: R96, puzzle: Same State NG 3)	37.7	76.4	96.3	–	–	–
GAGAGAUGAUUAGGAUAUCCGGUGAUAAUGAUAGGAGAAGGAAUUGACAUGAGGAUCACCCAUGUGGGAAUAAUCCAGAGAGAG [Parity 23 - Jieux - Same State NG 1] (Eterna round: R96, puzzle: Same State NG 1)	128	54.4	107	–	–	–
AUUAUACAUGAGGAUCACCCAUGUAAUUAAUCUAGUAAGAUCUAGGAUAUCAGCUCGUUUAGAGCUGAGAAGGAGAUCACAUGU [SSNG3/20-D3] (Eterna round: R96, puzzle: Same State NG 3)	–	38	–	–	–	–
AUUAAACAUGAGGAUCACCCAUGUCAACAAAGUCGAGGAUAUGGGCAUAUUAUCUAAUAACCAGAAGGCGAAUAAU [salish99_ss1_r3_085] (puzzle: Same State 1)	–	–	–	194	43.8	210
AAGUGAAUAGUGAUUACAUGAGGAUCACCCAUGUGGUGGAUGCAGGAUAUUAUUAGACCGUACAAUAAGAAGGGCGUAAUCACC [Eternabot solution 44] (Eterna round: R96, puzzle: Same State NG 3)	226	270	403	–	–	–
AGGGAGGAUGCAGGAUAUAUAAGACAUGAGGAUCACCCAUGUACCUCGUGGAGAAGAAAGGAGAGAUAGAAGGGUAGUGAGGAA [Default title] (Eterna round: R96, puzzle: Same State NG 2)	285	200	258	–	–	–
GGAUGAUAGACAGGAUAUUGAUUGUAAUUAGGUCAAGAAGGGUCAAUGAUUUAAACGACCAGUUACAUGAGGAUCACCCAUGUU [JR_SSNG1_Sub027] (Eterna round: R96, puzzle: Same State NG 1)	160	208	315	–	–	–

Sequence	apparent KD of MS2 coat protein (input ligand: FMN 200 uM) [nM]	apparent KD of MS2 coat protein [1] [nM]	apparent KD of MS2 coat protein (input ligand: none) [nM]	apparent KD of MS2 coat protein [2] [nM]	apparent KD of MS2 coat protein [3] [nM]	apparent KD of MS2 coat protein [4] [nM]
AACUUACGACCACAGGAUAUACUGAGGCGGACAUGAGGAUCACCCAUGUAGGCAAAAUAAGGGCAGUAGAAGGGUGGUCUUUACA [Usbiraxe] (puzzle: Same State 2)	–	–	–	18.8	18.4	27.5
AACAAUCUAUCUGAGGAUAUCAUGAAAUUAACAUGAGGAUCACCCAUGUGCAGGAAAACUGCAUAUGAGAAGGCAGAUAGAUUGA [salish99_ss2_r3_033] (puzzle: Same State 2)	–	–	–	1110	120	2020
ACAUGAGGAUCACCCAUGUAUAGAAUUGAAUGUUAAGAUACGUAGGAUAUCGAGUUUAGUAUGAUCGAGAAGGACGAUCUGAUA [JR_SSNG3_Sub065] (Eterna round: R96, puzzle: Same State NG 3)	–	14.5	–	–	–	–
UGGUACAUGGGAGGAUAUCAUGUAGAAACAUGAGGAUCACCCAUGUAGAUGGCCGGUAACCGGAAUGAGAAGGCCCAUGUACCU [JL SSNG1 3.63] (Eterna round: R96, puzzle: Same State NG 2)	22.7	18.9	30.6	–	–	–
CCAGCUACUCACAUGAGGAUCACCCAUGUCUAGGAUAUAGUAGAGGAUAUUGGCGGAUGGAAGACCGAGAAGGCUACCUCCUGA [Eternabot solution 49] (Eterna round: R96, puzzle: Same State NG 3)	17.9	14.4	18.3	–	–	–
CCAUAACGGUGAGGAUAUCGUUGCGAUAAGUGACGAGAAGGCAUUCAUGUGAAAUAAACAUACAUGAGGAUCACCCAUGUUGUA [Omei SS(NG)1 Bv1] (Eterna round: R96, puzzle: Same State NG 1)	23.7	57.2	57.7	–	–	–
GCGAAGAGGUAAGGAUAUUCAUGGCGGAGACAUGAGGAUCACCCAUGUAGGAGACGAAAUCUAAGGGAGAAGGUACCAGGACGC [AK SSNG2-V2-14] (Eterna round: R96, puzzle: Same State NG 2)	112	147	321	–	–	–
AUUAAACAUGAGGAUCACCCAUGUCAACAAAGUCGAGGAUAUGGGCAUAUUAUCUAAUAACCAGAAGGCGAAUAAU [salish99_ss1_r3_085] (Eterna round: R96, puzzle: Same State 1)	–	177	–	–	–	–
GAUUAACAUGAGGAUCACCCAUGUCGUUAUAUGGGAGGAUAUACGUGGACCGUAGUCCGCGUAGAAGGCCUAAUUG [Mat - Same State 1 - Mod of JL - D23] (puzzle: Same State 1)	–	–	–	188	–	–
GGCAGGUGCAGGCUUGCUUGCACCUGGAGACAUGAGGAUCACCCAUGUUUGGGACAAGCUUUGCUCCUCGUCUUUUC [JL ViennaUCT Isusreraar mod 7] (puzzle: Sensor for hsa-mir-208a)	–	–	–	104	617	766
GGUGGGUUGCUGCCGGCACAUGAGGAUCACCCAUGUUUUGGGAAGGAUAUGGUCCCUCUUUGGUGCCAGAAGGUCCCGUUGGUG [salish99_SSNG3_r04_714] (Eterna round: R96, puzzle: Same State NG 3)	691	402	743	–	–	–
UGUUGUAUUACAGGAUAUCUAUUAUUUUUAUGUAGAGAAGGGUAUUCACAUGAGGAUCACCCAUGUAUAUACGAGGAAGUUGUG [JMF's solution 29] (Eterna round: R96, puzzle: Same State NG 1)	–	32.9	–	–	–	–
GGAGCCGGCACCGAGGAUAUUCAUAUUAAAACAUGAGGAUCACCCAUGUACCGCAGAAGCGGUUGGGAGAAGGCGGAUCGGCUCG [Xeonanis - 23] (puzzle: Same State 2)	–	–	–	271	33	730
UAGCGCUGUCGAGAGGAUAUGCGGUGAUGGACAUGAGGAUCACCCAUGUUAGCGAUAGCAUUACGGUAGAAGGCUCUACAGCUGU [salish99_ss2_r3_093] (puzzle: Same State 2)	–	–	–	177	–	–
ACAUGAGAUCUAGGAUAUAUAGUACCUACAUGUGACAUGAGGAUCACCCAUGUGGUAAGUAUGACAUAGAAGGAGAAGAUAUGU [Equivalance 96 - Jieux - Same State NG 2] (Eterna round: R96, puzzle: Same State NG 2)	37.2	50.9	55.5	–	–	–
